The nature of data set [1]: Peptide content (assay) of lyophilized drug product by UPLC-UV at 220 nm, conventional method (peptide as reference standard). Type of data set: physicochemical. As to conditions: conventional method (peptide as RS). On the procedure:
The purity including individual related substances and the assay of a DP-5P (5 peptides, SEQ ID NOs: 1-5) and DP-7P (7 peptides, SEQ ID NOs: 6-12) mixture were determined by reversed phase rapid HPLC (UPLC) using a mobile phase gradient of acetonitrile and water and UV detection at λ=220 nm.
• Column: RP C18, e.g. Waters Acquity, BEH 130 PST (1.7 μm, 150×2.1 mm) • Sample matrix Eluent A : Eluent B=85:15 (v/v). • Sample concentration 100 μg/mL net peptide (of each drug substance mixture), duplicate • Injection volume: 5 μL • Column temperature: 65° C. • Sample temperature: 5° C. • Detection: UV (λ=220 nm) • Flow rate: 0.3 mL/min • Eluent A: 0.05%v/v TFA and 1%v/v Acetonitrile (ACN) in water • Eluent B: 0.05%v/v TFA in ACN
The relative retention times (RRTs) assigned to peptides and related substances both in a DP-5P (SEQ ID NO: 1-5) and DP-7P (SEQ ID NO: 6-12) mixture was calculated with reference to the retention time of the peptide eluting in the middle (FIG. 1 and FIG. 2). That retention time was used as reference as the main peak of this drug substance was detected approx. in the center of the chromatogram. The related substances were determined by area normalization. The individual related substances were reported≥0.10%a/a. The total related substances were calculated as the sum of all individual related substances equal to or greater than a disregard limit of 0.0500%a/a. The purity was calculated as the difference between total related substances and 100%.
The assay of each of the peptides was calculated against a reference standard solution containing either five peptides (DP-5P) or seven peptides (DP-7P) and was expressed in percent and in mg net peptide/vial. For this reference method, the absorption ratio between the reference substance and the analyte is 1, because the reference substance is the analyte itself.
At T=0 months (TOM) the peptide content was measured using the conventional method of Example 2. From T=48 months (T48M) onwards the peptide content was measured with the conventional method of Example 2 and the method according to the invention of Example 3.

The nature of data set [2]: Peptide content (assay) of lyophilized drug product by UPLC-UV at 220 nm, method according to the invention (USP reserpine reference standard, RRF). The class given is physicochemical. The note with it: method according to the invention (USP RS). The source says:
The UPLC method similar to Example 1 was used for the quantification of analytes (i.e. the individual peptides) in mixtures DP-5P (SEQ ID NO: 1-5) and DP-7P (SEQ ID NO: 6-12) and for the determination of content uniformity of mixtures DP-5P and DP-7P (lyophilized product). The method is based on the use of an external reference standard. The relative response factor (ratio of molar extinction coefficients, RRF) against this external reference standard has been established for each peptide. The purity, individual related substances, and the assay of DP-5P and DP-7P were determined by reversed phase rapid HPLC (UPLC) using a mobile phase gradient of ACN/IPA and water and UV detection at λ220 nm.
The following lyophilized peptide compositions were used: DP-5P comprising peptides represented herein by SEQ ID NO: 1-5 admixed at equal net weights of 0.40 mg of each peptide per vial (total amount of protein per vial being 2.00 mg) and 0.56 mg TFA per vial; and DP-7P comprising peptides represented herein by SEQ ID NO: 6-12 admixed at equal net weights of 0.40 mg of each peptide per vial (total amount of protein per vial being 2.80 mg) and 0.96 mg TFA per vial. The following chemicals were used: Acetonitrile, (Biosolve, 01204102); UPLC water, (Type 1, milli-Q); trifluoroacetic acid, (Chem Lab, CLoo.2094.0001), 2-propanol, (UPLC/MS grade, Biosolve, 16264102); Reserpine, (USP, Sigma Aldrich, 1601000). The following equipment was used: QuanRecovery vials, (Waters, 186009186); UPLC pump equipped with a gradient system, autosampler, and UV detection (Waters Acquity or equivalent) and mixer volume 425 μL.
• Mobile phase A: 0.1% (v/v) TFA in water • Mobile phase B: 0.1% (v/v) TFA in 70/30 ACN/IPA • Diluent A: 0.05% (v/v) TFA in water • Diluent B: 0.05% (v/v) TFA in ACN • Blank solution: 80/20 (v/v) diluent A/diluent B • Purge solvent: 80/20 (v/v) water/ACN • Needle wash: 0.05% (v/v) TFA in 80/20 (v/v) water/ACN
5.00 mg Reserpine reference material was accurately weighed and added into a 50 mL volumetric flask. 40.0 mL of blank solution was added, by means of a volumetric pipette. The solution was stirred for 10 min, by means of a magnetic stirrer, until fully dissolved. The solution was diluted to volume with blank solution and mixed well.
Transfer of 2.0 mL, by means of a volumetric pipette, of stock reference solution 1 into a 20 mL volumetric flask. Diluted to volume with blank solution and homogenized.
This sample preparation was setup for lyophilized products DP-5P and DP-7P in an initially sealed container. Before opening and dissolving the drug product, the vials were equilibrated at room temperature for at least 1 hour. The content of the vial was dissolved with 0.8 mL of diluent B, and stirred for 20 min, using a magnetic stirrer. 3.2 mL of diluent A were added. The solution was stirred well for 20 min, using a magnetic stirrer. After dissolving the content of the vial, the sample vial was kept on the lab bench for 30 minutes. The solution was stirred briefly and transferred into an HPLC vial.
• Column: Advance Bio Peptide Map (2.7 μm, 250 x 2.1 mm) • Sample matrix 0.05%v/v TFA in ACN : water (1:4 v/v) • Sample concentration 100 μg/mL net peptide (of each drug substance), duplicate • Injection volume: 10 μL • Column temperature: 40° C. • Sample temperature: 5° C. • Detection: UV (λ=220 nm) • Flow rate: 0.2 mL/min • Run time: 65 min • Purge solvent: 80/20 (v/v) water/ACN • Needle wash: 0.05% (v/v) TFA in 80/20 water/ACN (v/v) (20 s) • Seal wash: 90/10 (v/v) water/MeOH • Elution mode: Gradient elution • Eluent A: 0.1%v/v TFA in water • Eluent B: 0.1%v/v TFA in ACN/IPA (70:30 v/v)
The RRF was determined for all 12 peptides, enabling the quantification of each peptide against a reserpine as shown above. For the determination, the absorbance of each peptide in a solution comprising said peptide at a known concentration, and of a reference standard solution comprising reserpine at a known concentration, were measured at 220 nm. […]

Take DKCLKFYSKISEYRHYCYSLYGTTL (Peptide 1): the “Assay (mg/vial)” value in data set [1] (DP-5P batch, T0M) is 0.4047 mg/vial; in data set [1] (DP-5P batch, T48M) it was 0.4107 mg/vial; in data set [1] (DP-5P batch, T54M) it was 0.4088 mg/vial; in data set [1] (DP-5P batch, T60M), 0.4082 mg/vial; in data set [2] (DP-5P batch, T48M), 0.3910 mg/vial; in data set [2] (DP-5P batch, T54M), 0.3932 mg/vial. Besides, the “Assay (mg/vial)” value in data set [2] (DP-5P batch, T60M) stood at 0.3701 mg/vial. For the same sequence, the “Label claim (% target 0.40 mg/vial)” value in data set [1] (DP-5P batch, T0M) amounted to 101%; in data set [1] (DP-5P batch, T48M), 103%; in data set [1] (DP-5P batch, T54M) it was 102%; in data set [1] (DP-5P batch, T60M), 102%; in data set [2] (DP-5P batch, T48M), 98%; in data set [2] (DP-5P batch, T54M), 98%. In addition, the “Label claim (% target 0.40 mg/vial)” value in data set [2] (DP-5P batch, T60M) amounted to 93%.

For “DKKQRFHNIRGRWTGRCMSCCRSSRTRRETQL (Peptide 6)”, the “Assay (mg/vial)” value in data set [1] (DP-7P batch, T0M) amounted to 0.4315 mg/vial; in data set [1] (DP-7P batch, T48M), 0.4390 mg/vial; in data set [1] (DP-7P batch, T54M), 0.4280 mg/vial; in data set [1] (DP-7P batch, T60M) it was 0.4286 mg/vial; in data set [2] (DP-7P batch, T48M), 0.4100 mg/vial; in data set [2] (DP-7P batch, T54M) it was 0.4033 mg/vial. The “Assay (mg/vial)” value in data set [2] (DP-7P batch, T60M) is recorded as 0.4010 mg/vial. For the same sequence, the “Label claim (% target 0.40 mg/vial)” value amounted to 108% in data set [1] (DP-7P batch, T0M); 110% in data set [1] (DP-7P batch, T48M); 107% in data set [1] (DP-7P batch, T54M); 107% in data set [1] (DP-7P batch, T60M); 103% in data set [2] (DP-7P batch, T48M); 101% in data set [2] (DP-7P batch, T54M). Also, the “Label claim (% target 0.40 mg/vial)” value in data set [2] (DP-7P batch, T60M) amounted to 100%.

In the case of HYCYSLYGTTLEQQYNKPLCDLLIR (Peptide 7), the “Assay (mg/vial)” value was 0.4393 mg/vial in data set [1] (DP-7P batch, T0M); 0.4279 mg/vial in data set [1] (DP-7P batch, T48M); 0.4219 mg/vial in data set [1] (DP-7P batch, T54M); 0.4222 mg/vial in data set [1] (DP-7P batch, T60M); 0.4036 mg/vial in data set [2] (DP-7P batch, T48M); 0.3980 mg/vial in data set [2] (DP-7P batch, T54M). Moreover, in data set [2] (DP-7P batch, T60M), the “Assay (mg/vial)” value was 0.3967 mg/vial. For the same sequence, the “Label claim (% target 0.40 mg/vial)” value came out at 107% in data set [1] (DP-7P batch, T0M); 107% in data set [1] (DP-7P batch, T48M); 105% in data set [1] (DP-7P batch, T54M); 106% in data set [1] (DP-7P batch, T60M); 101% in data set [2] (DP-7P batch, T48M); 99% in data set [2] (DP-7P batch, T54M). Also, the “Label claim (% target 0.40 mg/vial)” value in data set [2] (DP-7P batch, T60M) is listed as 99%.

Take KQQLLRREVYDFAFRDLCIVYRDGN (Peptide 8): the “Assay (mg/vial)” value is recorded as 0.4357 mg/vial in data set [1] (DP-7P batch, T0M); 0.4323 mg/vial in data set [1] (DP-7P batch, T48M); 0.4289 mg/vial in data set [1] (DP-7P batch, T54M); 0.4294 mg/vial in data set [1] (DP-7P batch, T60M); 0.3980 mg/vial in data set [2] (DP-7P batch, T48M); 0.3928 mg/vial in data set [2] (DP-7P batch, T54M). In addition, the “Assay (mg/vial)” value in data set [2] (DP-7P batch, T60M) is reported as 0.3900 mg/vial. For the same sequence, the “Label claim (% target 0.40 mg/vial)” value is given as 109% in data set [1] (DP-7P batch, T0M); 108% in data set [1] (DP-7P batch, T48M); 107% in data set [1] (DP-7P batch, T54M); 107% in data set [1] (DP-7P batch, T60M); 99% in data set [2] (DP-7P batch, T48M); 98% in data set [2] (DP-7P batch, T54M). Further, the “Label claim (% target 0.40 mg/vial)” value in data set [2] (DP-7P batch, T60M) amounted to 98%.

Consider “LPQLCTELQTTIHDIILECVYCKQQLLRREVY (Peptide 9)”, for which the “Assay (mg/vial)” value is 0.4328 mg/vial in data set [1] (DP-7P batch, T0M); 0.4325 mg/vial in data set [1] (DP-7P batch, T48M); 0.4262 mg/vial in data set [1] (DP-7P batch, T54M); 0.4361 mg/vial in data set [1] (DP-7P batch, T60M); 0.3901 mg/vial in data set [2] (DP-7P batch, T48M); 0.3718 mg/vial in data set [2] (DP-7P batch, T54M). In data set [2] (DP-7P batch, T60M), the “Assay (mg/vial)” value was 0.3700 mg/vial. The “Label claim (% target 0.40 mg/vial)” value in data set [1] (DP-7P batch, T0M) is recorded as 108%; in data set [1] (DP-7P batch, T48M), 108%; in data set [1] (DP-7P batch, T54M), 107%; in data set [1] (DP-7P batch, T60M), 109%; in data set [2] (DP-7P batch, T48M), 98%; in data set [2] (DP-7P batch, T54M), 93%. For the same sequence, in data set [2] (DP-7P batch, T60M), the “Label claim (% target 0.40 mg/vial)” value came out at 93%.

These data come from US20230296569A1, “Substance quantification in complex mixtures” (ISA Pharmaceuticals B.V., priority 2021, published 2023).
